Drawing on US20180117147A1, this text covers KIR receptor occupancy for one substance.

Test [1] deals with human KIR2DL3 expressed on NK and T lymphocytes of KIR2DL3 transgenic C57Bl/6 mice (human) (UniProt P43628). As to the kind of experiment: in vivo receptor occupancy in whole blood of KIRtgB6 mice, 20 mg/kg iv, for 14 days.
For test [2] the target is unchanged. The test is described as follows: in vivo receptor occupancy in KIRtgB6 mice, 10 mg/kg iv, for 8 days.

UniProt P43628, sequence (P43628 22-341): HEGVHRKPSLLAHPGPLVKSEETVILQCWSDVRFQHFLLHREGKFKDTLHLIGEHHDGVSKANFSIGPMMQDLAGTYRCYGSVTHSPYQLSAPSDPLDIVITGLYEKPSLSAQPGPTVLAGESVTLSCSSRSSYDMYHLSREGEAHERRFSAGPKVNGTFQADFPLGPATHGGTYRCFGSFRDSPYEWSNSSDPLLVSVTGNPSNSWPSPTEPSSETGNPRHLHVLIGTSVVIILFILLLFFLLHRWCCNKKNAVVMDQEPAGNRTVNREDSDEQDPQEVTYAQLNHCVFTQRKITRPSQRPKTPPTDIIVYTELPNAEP

Take Anti-KIR antibody clone GL183: the KIR receptor occupancy in test [1] and in test [2] was more than 90% each time.
